Values of other authors as cited in PMC3930637.

Target: HIV-1 capsid (CA) CA (Human immunodeficiency virus 1) (UniProt O93182)
Sequence (O93182 133-363): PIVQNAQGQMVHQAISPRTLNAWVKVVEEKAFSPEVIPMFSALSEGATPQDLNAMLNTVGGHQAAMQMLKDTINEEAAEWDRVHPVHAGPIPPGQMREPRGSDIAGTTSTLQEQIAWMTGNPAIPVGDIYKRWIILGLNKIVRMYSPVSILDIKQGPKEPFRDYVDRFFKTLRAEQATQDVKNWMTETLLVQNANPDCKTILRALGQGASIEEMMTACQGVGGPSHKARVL

Chain of Nup358 cyclophilin homology domain (P49792 3067-3223): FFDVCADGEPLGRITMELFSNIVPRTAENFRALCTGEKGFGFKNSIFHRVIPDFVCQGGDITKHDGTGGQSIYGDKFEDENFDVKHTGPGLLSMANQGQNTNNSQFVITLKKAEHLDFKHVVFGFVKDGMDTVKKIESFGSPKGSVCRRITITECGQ

## Nup358 cyclophilin homology domain (from UniProt P49792)
  Kd: 94 µM
